Two molecules from PMC11369174 (Molecular Systems Biology, 2024) can be followed below.

Experiment in all cases: fluorescence polarisation; saturation binding: dilution series of the protein domain added to 10 nM FITC-labelled peptide; 50 mM sodium phosphate pH 7.4, 0.05% Tween (protein dialysed in 50 mM sodium phosphate with 1 mM DTT; CASK kinase domain with 100 mM NaCl in addition); quadratic fit; technical triplets
What all share (settings): both partners purified
For orientation: In fluorescence polarisation assays a small probe gives low polarisation when free and higher when bound to something large.

The target in one assay is T1, GABARAPL1 ATG8 domain (human).
T1 construct: GABARAPL1, human, ATG8 domain; source: E. coli BL21 (DE3) Gold, purified (glutathione or Ni2+ beads)

In the next assay the target is T2, MAP1LC3A ATG8 domain (human).
T2 construct: MAP1LC3A, human, ATG8 domain; source: E. coli BL21 (DE3) Gold, purified (glutathione or Ni2+ beads)

For another assay, the target named is MAP1LC3B ATG8 domain (human, UniProt Q9GZQ8 1-120).
The next assay has as its target T3, USP7 MATH/TRAF domain (human).
T3 construct: USP7, human, MATH/TRAF domain; source: E. coli BL21 (DE3) Gold, purified (glutathione or Ni2+ beads)

Where no end group is shown, it is not given here.

Take DDDWTHLSSK (also: FITC label, position not given here) [FITC-SQSTM1]: the Kd with GABARAPL1 ATG8 domain stood at 3.7 µM; with MAP1LC3A ATG8 domain it was 0.68 µM; with MAP1LC3B ATG8 domain, 1.4 µM.

The molecule DYSQPSTSSSIIY (also: FITC label, position not given here) [FITC-MDM2] showed a Kd with USP7 MATH/TRAF domain of 0.5 µM. This counts as sub-micromolar.

For orientation: Kd means the concentration at which binding is half-saturated. A low value points to a tighter complex.
